Source: publication PMC549075, “HIV-1 Tat protein enhances Microtubule polymerization” (Retrovirology, 2005)

Legend:
Lamb brain tubulin [1] = target: Lamb brain tubulin (lamb); test: cell-based or functional assay
Lamb brain tubulin [2] = target: Lamb brain tubulin (lamb); test: cell-based or functional assay; remark: listed apart in the source

B1: HIV-1 Tat protein, HxB2 strain (natural protein)
chain: MEPVDPRLEPWKHPGSQPKTACTNCYCKKCCFHCQVCFITKALGISYGRKKRRQRRRAHQNSQTHQASLSKQPTSQPRGDPTGPKE
Lamb brain tubulin [1]
  fold increase of the turbidity plateau over tubulin alone, 4 μM and 8 μM Tat with 15 μM tubulin: 3.7 fold
Lamb brain tubulin [2]
  ΔOD ratio (plateau with 8 μM compound divided by plateau of tubulin alone): 3.31
